Columns and labels:
[1] = target: T1, hCXCL11.0021-G1T4k.one//VHn-G1T4h.one.H435R
T1 chain 1: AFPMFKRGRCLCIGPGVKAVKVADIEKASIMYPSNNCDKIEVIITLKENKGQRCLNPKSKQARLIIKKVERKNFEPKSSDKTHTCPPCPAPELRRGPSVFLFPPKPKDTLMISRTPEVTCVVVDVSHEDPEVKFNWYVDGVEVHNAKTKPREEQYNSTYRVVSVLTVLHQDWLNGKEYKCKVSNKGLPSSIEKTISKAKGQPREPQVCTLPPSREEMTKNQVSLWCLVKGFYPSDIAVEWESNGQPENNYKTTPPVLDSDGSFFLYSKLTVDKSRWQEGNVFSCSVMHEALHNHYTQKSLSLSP
T1 chain 2: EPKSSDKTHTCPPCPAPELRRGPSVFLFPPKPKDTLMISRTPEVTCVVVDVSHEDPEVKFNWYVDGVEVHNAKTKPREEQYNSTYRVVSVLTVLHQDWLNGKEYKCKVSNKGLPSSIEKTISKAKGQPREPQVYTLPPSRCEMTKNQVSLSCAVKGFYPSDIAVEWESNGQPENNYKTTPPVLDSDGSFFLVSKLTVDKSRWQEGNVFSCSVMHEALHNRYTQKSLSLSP

[2] = target: T2, hITIP0030-G1T4k.one//VHn-G1T4h.one.H435R
T2 chain 1: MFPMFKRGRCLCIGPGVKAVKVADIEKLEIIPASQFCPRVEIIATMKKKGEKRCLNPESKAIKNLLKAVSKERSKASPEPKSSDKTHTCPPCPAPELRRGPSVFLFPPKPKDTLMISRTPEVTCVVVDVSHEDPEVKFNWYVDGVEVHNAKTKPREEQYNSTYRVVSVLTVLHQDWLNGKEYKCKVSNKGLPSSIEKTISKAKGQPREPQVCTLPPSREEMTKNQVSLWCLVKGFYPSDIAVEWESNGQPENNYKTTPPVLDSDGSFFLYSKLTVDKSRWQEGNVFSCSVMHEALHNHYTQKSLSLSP
T2 chain 2: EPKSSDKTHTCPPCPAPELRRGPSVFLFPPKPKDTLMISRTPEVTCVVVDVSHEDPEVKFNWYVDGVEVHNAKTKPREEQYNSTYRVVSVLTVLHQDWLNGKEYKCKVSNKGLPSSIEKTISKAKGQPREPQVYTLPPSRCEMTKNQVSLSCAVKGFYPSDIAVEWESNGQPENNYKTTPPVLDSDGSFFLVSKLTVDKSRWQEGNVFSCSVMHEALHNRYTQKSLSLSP

[3] = target: T3, hCXCL11.0031-G1T4k.one//VHn-G1T4h.one.H435R
T3 chain 1: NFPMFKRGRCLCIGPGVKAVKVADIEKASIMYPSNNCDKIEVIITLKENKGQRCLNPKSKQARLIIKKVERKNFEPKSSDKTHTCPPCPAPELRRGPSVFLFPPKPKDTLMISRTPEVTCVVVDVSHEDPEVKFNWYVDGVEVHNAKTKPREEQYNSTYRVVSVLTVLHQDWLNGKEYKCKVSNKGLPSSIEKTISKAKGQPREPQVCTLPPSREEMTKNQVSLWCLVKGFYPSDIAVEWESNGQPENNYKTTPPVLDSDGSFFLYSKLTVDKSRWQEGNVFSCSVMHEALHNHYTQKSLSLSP
T3 chain 2: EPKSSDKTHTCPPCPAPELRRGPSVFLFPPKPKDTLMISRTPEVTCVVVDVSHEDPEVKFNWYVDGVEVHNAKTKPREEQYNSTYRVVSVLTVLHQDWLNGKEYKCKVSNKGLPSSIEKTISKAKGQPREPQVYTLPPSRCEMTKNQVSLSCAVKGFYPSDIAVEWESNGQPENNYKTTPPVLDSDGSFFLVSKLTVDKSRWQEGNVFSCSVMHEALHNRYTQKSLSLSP

[4] = target: T4, hITIP-G1T4k.one//VHn-G1T4h.one.H435R
T4 chain 1: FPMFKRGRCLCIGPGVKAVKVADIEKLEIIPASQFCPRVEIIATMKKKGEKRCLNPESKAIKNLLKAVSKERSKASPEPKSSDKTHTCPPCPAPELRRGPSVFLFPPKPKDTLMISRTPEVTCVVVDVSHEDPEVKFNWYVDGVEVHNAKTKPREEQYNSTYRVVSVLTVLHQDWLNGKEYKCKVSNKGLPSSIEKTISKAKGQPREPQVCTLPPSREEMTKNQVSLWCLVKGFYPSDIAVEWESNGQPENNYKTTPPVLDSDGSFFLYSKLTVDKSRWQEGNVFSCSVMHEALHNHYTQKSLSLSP
T4 chain 2: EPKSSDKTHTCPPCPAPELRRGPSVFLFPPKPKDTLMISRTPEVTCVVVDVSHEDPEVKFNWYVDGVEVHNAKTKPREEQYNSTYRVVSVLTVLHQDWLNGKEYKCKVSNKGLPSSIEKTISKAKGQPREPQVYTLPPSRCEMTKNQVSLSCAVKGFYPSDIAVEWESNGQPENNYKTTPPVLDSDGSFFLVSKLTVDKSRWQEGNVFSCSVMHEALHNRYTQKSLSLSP

[5] = target: T5, hITIP0039-G1T4k.one//VHn-G1T4h.one.H435R
T5 chain 1: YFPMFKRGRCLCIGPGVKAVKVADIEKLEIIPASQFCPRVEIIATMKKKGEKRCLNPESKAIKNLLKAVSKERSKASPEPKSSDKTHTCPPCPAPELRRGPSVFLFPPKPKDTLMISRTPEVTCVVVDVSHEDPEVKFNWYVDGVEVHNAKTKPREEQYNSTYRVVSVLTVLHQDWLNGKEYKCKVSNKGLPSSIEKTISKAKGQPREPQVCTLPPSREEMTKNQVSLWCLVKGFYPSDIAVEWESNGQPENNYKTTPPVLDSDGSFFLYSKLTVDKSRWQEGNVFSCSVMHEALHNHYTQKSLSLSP
T5 chain 2: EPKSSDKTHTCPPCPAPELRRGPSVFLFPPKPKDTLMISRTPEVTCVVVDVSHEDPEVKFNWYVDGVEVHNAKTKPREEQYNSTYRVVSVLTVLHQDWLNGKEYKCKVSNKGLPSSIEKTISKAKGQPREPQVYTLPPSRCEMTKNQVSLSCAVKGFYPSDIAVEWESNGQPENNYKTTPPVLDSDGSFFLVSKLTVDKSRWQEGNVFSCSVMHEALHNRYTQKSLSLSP

[6] = target: T6, hITIP0033-G1T4k.one//VHn-G1T4h.one.H435R
T6 chain 1: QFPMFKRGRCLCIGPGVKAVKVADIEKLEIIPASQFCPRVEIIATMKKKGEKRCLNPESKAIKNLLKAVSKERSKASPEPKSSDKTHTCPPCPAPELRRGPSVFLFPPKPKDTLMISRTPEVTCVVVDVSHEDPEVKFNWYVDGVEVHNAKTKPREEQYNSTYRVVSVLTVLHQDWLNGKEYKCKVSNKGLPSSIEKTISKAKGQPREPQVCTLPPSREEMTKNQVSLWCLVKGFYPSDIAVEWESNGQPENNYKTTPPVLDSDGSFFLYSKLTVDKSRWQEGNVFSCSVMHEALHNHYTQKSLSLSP
T6 chain 2: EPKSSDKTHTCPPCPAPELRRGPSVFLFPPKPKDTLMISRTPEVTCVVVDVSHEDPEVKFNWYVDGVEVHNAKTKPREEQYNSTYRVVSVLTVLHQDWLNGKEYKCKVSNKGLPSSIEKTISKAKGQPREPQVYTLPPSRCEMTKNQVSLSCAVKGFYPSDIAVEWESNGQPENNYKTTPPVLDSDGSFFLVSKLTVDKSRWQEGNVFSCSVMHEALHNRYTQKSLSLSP

[7] = target: T7, hCXCL11-G1T4k.one//VHn-G1T4h.one.H435R
T7 chain 1: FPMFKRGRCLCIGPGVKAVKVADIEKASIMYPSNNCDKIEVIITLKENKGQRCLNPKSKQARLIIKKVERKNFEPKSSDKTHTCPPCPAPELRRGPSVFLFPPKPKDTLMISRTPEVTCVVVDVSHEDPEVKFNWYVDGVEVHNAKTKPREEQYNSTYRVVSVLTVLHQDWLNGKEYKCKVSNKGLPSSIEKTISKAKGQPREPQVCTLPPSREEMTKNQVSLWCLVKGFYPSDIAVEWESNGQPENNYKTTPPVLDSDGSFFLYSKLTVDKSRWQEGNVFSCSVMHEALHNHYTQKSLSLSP
T7 chain 2: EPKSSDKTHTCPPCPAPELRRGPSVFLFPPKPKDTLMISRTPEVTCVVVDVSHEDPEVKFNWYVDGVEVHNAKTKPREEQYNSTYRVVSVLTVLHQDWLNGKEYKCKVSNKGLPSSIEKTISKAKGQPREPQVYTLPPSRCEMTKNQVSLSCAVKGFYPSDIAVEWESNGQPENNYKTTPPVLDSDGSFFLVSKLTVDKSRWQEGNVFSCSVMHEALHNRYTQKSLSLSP

[8] = target: T8, hCXCL11.0025-G1T4k.one//VHn-G1T4h.one.H435R
T8 chain 1: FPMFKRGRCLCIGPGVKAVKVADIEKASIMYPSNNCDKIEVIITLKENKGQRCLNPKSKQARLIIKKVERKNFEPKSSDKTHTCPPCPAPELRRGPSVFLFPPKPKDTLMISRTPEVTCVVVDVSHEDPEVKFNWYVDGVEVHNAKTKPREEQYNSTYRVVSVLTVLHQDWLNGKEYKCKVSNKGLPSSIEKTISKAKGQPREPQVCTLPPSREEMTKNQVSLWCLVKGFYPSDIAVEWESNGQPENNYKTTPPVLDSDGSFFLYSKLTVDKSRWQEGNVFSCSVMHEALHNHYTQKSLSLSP
T8 chain 2: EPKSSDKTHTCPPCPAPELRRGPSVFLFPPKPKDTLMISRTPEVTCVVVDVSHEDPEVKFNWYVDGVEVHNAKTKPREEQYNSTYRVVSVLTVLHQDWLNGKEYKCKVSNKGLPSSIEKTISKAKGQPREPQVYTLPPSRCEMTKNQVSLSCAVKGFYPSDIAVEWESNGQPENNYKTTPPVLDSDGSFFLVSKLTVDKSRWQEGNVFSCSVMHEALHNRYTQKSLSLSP

B1: human dipeptidyl peptidase IV (human DPPIV, hDPPIV) (Biolegend, 764102) (protein)
chain: NKGTDDATADSRKTYTLTDYLKNTYRLKLYSLRWISDHEYLYKQENNILVFNAEYGNSSVFLENSTFDEFGHSINDYSISPDGQFILLEYNYVKQWRHSYTASYDIYDLNKRQLITEERIPNNTQWVTWSPVGHKLAYVWNNDIYVKIEPNLPSYRITWTGKEDIIYNGITDWVYEEEVFSAYSALWWSPNGTFLAYAQFNDTEVPLIEYSFYSDESLQYPKTVRVPYPKAGAVNPTVKFFVVNTDSLSSVTNATSIQITAPASMLIGDHYLCDVTWATQERISLQWLRRIQNYSVMDICDYDESSGRWNCLVARQHIEMSTTGWVGRFRPSEPHFTLDGNSFYKIISNEEGYRHICYFQIDKKDCTFITKGTWEVIGIEALTSDYLYYISNEYKGMPGGRNLYKIQLSDYTKVTCLSCELNPERCQYYSVSFSKEAKYYQLRCSGPGLPLYTLHSSVNDKGLRVLEDNSALDKMLQNVQMPSKKLDFIILNETKFWYQMILPPHFDKSKKYPLLLDVYAGPCSQKADTVFRLNWATYLASTENIIVASFDGRGSGYQGDKIMHAINRRLGTFEVEDQIEAARQFSKMGFVDNKRIAIWGWSYGGYVTSMVLGSGSGVFKCGIAVAPVSRWEYYDSVYTERYMGLPTPEDNLDHYRNSTVMSRAENFKQVEYLLIHGTADDNVHFQQSAQISKALVDVGVDFQAMWYTDEDHGIASSTAHQHIYTHMSHFIKQCFSLP
[1]
  cleavage by hDPPIV (LC/MS mass): showed no mass change suggestive of peptide bond cleavage by hDPPIV treatment
[2]
  cleavage by hDPPIV (LC/MS mass): showed no mass change suggestive of peptide bond cleavage by hDPPIV treatment
[3]
  cleavage by hDPPIV (LC/MS mass): showed no mass change suggestive of peptide bond cleavage by hDPPIV treatment
[4]
  cleavage by hDPPIV (LC/MS mass): DPPIV treatment reduced each of the masses
[5]
  cleavage by hDPPIV (LC/MS mass): showed no mass change suggestive of peptide bond cleavage by hDPPIV treatment
[6]
  cleavage by hDPPIV (LC/MS mass): showed no mass change suggestive of peptide bond cleavage by hDPPIV treatment
[7]
  cleavage by hDPPIV (LC/MS mass): DPPIV treatment reduced each of the masses
[8]
  cleavage by hDPPIV (LC/MS mass): showed no mass change suggestive of peptide bond cleavage by hDPPIV treatment
